Experimental data from article PMC4513882.
Where two headings read alike, the source gives them in different places.

B1: ssDNA90 (ssDNA)
DNA: TGGAGAATCCCGGTGCCGAGGCCGCTCAATTGGTCGTAGACAGCTCTAGCACCGCTTGAAGGAGATATACATACATTAATTGCGTTGCGC
B2: ssDNA57 (ssDNA)
DNA: TGGAGAATCCCGGTGCCGAGGCCGCTCAATTGGTCGTAGACAGCTCTAGCACCGCTT
B3: dsDNA57 (dsDNA)
DNA 1: B2 DNA
DNA 2: AAGCGGTGCTAGAGCTGTCTACGACCAATTGAGCGGCCTCGGCACCGGGATTCTCCA
B4: RNA:DNA40 (DNA:RNA)
RNA: CACCAAUUCGUCUUAGGGUUAAUCUUGAAGCUAGAGUUAA
DNA: TTAACTCTAGCTTCAAGATTAACCCTAAGACGAATTGGTG
B5: ssRNA40 (ssRNA)
RNA: B4 RNA
B6: ssRNA90 (ssRNA)
RNA: GGGGAAUUGUGAGCGGAUAACAAUUCCCCUCUAGAAAUAAUUUUGUUUAACUUUAAGAAGGAGAUAUACAUAUGCACCAUCAUCAUCAUC

How the values were obtained:
SAMHD1 wt [1] = biological target: T1, SAMHD1 wt (human, UniProt Q9Y3Z3 1-626); assay: competition
T1 sequence (Q9Y3Z3 whole entry): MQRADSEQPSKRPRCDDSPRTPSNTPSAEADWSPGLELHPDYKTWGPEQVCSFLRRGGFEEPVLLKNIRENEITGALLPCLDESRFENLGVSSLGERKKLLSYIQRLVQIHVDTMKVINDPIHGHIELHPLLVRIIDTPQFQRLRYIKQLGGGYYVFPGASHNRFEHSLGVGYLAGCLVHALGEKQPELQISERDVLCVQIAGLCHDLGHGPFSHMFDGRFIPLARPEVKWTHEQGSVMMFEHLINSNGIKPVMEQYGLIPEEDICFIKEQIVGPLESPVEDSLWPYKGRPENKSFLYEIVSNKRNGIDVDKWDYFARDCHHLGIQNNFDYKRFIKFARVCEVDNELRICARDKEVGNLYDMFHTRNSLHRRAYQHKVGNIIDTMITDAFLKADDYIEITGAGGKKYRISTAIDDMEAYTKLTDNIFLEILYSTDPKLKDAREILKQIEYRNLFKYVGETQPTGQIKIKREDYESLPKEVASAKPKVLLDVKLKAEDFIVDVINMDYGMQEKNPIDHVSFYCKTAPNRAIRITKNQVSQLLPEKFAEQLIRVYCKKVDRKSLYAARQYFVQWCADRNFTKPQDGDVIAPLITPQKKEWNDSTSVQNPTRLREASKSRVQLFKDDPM

SAMHD1 Q548A = SAMHD1 Q548A (human, UniProt Q9Y3Z3 1-626, Q548A); assay: fluorescence anisotropy
SAMHD1 Q548A, sequence (Q9Y3Z3 whole entry Q548A): as the sequence (Q9Y3Z3 whole entry) above, with Q548A counted along it

SAMHD1 T592E = SAMHD1 T592E (human, UniProt Q9Y3Z3 1-626, T592E); assay: fluorescence anisotropy
SAMHD1 T592E, sequence (Q9Y3Z3 whole entry T592E): as the sequence (Q9Y3Z3 whole entry) above, with T592E counted along it

SAMHD1 wt [2] = biological target: T1, SAMHD1 wt; assay: fluorescence anisotropy
SAMHD1 wt [3] = biological target: T1, SAMHD1 wt; assay: fluorescence anisotropy; remark: listed apart in the source
SAMHD1 ΔSAM (Δ112) = SAMHD1 ΔSAM (Δ112) (human, UniProt Q9Y3Z3 113-626, del1-112); assay: fluorescence anisotropy
SAMHD1 ΔSAM (Δ112), sequence (Q9Y3Z3 113-626, stated change not applied): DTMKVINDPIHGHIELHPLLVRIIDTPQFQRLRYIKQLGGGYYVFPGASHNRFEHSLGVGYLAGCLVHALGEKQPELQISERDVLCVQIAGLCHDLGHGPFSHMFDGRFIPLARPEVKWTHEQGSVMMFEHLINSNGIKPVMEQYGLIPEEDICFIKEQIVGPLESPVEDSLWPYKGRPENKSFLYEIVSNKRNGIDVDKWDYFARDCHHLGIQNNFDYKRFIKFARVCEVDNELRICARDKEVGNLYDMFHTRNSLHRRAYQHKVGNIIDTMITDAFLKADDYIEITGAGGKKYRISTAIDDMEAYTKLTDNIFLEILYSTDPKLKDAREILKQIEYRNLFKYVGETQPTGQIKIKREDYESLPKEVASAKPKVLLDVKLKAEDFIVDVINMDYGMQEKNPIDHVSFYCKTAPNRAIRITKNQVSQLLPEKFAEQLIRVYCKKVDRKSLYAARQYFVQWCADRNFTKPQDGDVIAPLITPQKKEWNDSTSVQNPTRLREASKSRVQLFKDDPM

SAMHD1 R451E = SAMHD1 R451E (human, UniProt Q9Y3Z3 1-626, R451E); assay: fluorescence anisotropy
SAMHD1 R451E, sequence (Q9Y3Z3 whole entry R451E): as the sequence (Q9Y3Z3 whole entry) above, with R451E counted along it

SAMHD1 wt [4] = biological target: T1, SAMHD1 wt; assay: competition; remark: listed apart in the source

Binder | binding result (SAMHD1 Q548A) | binding result (SAMHD1 T592E) | apparent K (half saturation) (SAMHD1 wt [2]) [nM] | also measured
B1 | – | – | – | binding result (SAMHD1 wt [1]): binds
B2 | binds | binds | 450 ± 130 | –
B3 | – | – | – | apparent K (half saturation) (SAMHD1 wt [3]): 18 ± 2 µM
B4 | – | – | 2000 ± 400 | –
B5 | binds | binds | – | binding result (SAMHD1 ΔSAM (Δ112)): binds; binding result (SAMHD1 R451E): binds
B6 | – | – | – | binding result (SAMHD1 wt [4]): binds
